B1: Noggin: BMP inhibitor (protein, UniProt Q13253 28-232, looked up)
Noggin: QHYLHIRPAPSDNLPLVDLIEHPDPIFDPKEKDLNETLLRSLLGGHYDPGFMATSPPEDRPGGGGGAAGGAEDLAELDQLLRQRPSGAMPSEIKGLEFSEGLAQGKKQRLSKKLRRKLQMWLWSQTFCPVLYAWNDLGSRFWPRYVKVGSCFSKRSCSVPEGMVCKPSKSVHLTVLRWRCQRRGGQRCGWIPIQYPIISECKCSC
B2: R-spondin 1: WNT/R-spondin activator (protein, UniProt Q2MKA7 21-263, looked up)
R-spondin-1: SRGIKGKRQRRISAEGSQACAKGCELCSEVNGCLKCSPKLFILLERNDIRQVGVCLPSCPPGYFDARNPDMNKCIKCKIEHCEACFSHNFCTKCKEGLYLHKGRCYPACPEGSSAANGTMECSSPAQCEMSEWSPWGPCSKKQQLCGFRRGSEERTRRVLHAPVGDHAACSDTKETRRCTVRRVPCPEGQKRRKGGQGRRENANRNLARKESKEAGAGSRRRKGQQQQQQQGTVGPLTSAGPA
B3: WNT3A: human recombinant WNT3A, Wnt signaling pathway activator (protein, UniProt P56704 19-352, looked up)
Protein Wnt-3a: SYPIWWSLAVGPQYSSLGSQPILCASIPGLVPKQLRFCRNYVEIMPSVAEGIKIGIQECQHQFRGRRWNCTTVHDSLAIFGPVLDKATRESAFVHAIASAGVAFAVTRSCAEGTAAICGCSSRHQGSPGKGWKWGGCSEDIEFGGMVSREFADARENRPDARSAMNRHNNEAGRQAIASHMHLKCKCHGLSGSCEVKTCWWSQPDFRAIGDFLKDKYDSASEMVVEKHRESRGWVETLRPRYTYFKVPTERDLVYYEASPNFCEPNPETGSFGTRDRTCNVSSHGIDGCDLLCCGRGHNARAERRREKCRCVFHWCCYVSCQECTRVYDVHTCK

Key:
Assay type in all cases: cell-based, human
[1] = test system: two-dimensional intestinal stem cell population; assay: Subculture of two-dimensional intestinal stem cells, engraftment / cell number; details: factor removed from culture medium, subculture; FIG. 12
Protocol: (§1) The three-dimensional intestinal organoids were isolated from a Matrigel dome and the remaining three-dimensional intestinal organoids were removed as much as possible by pipetting. The separated organoids were placed in 1 ml of 0.25% trypsin-EDTA (TE, Invitrogen) and incubated at 37° C. a water bath for about 5 minutes. Then, pipetting was performed less than five times so that the organoids were allowed to be isolated into single cells and small clumps, and a basal medium was added so that the total volume thereof was 10 ml. The cells fed into a centrifuge were placed on culture dishes coated with feeder cells or 1% of Matrigel (Corning). […]
The two-dimensional intestinal stem cell population was plated on a culture dish coated with 1% of Matrigel and then cultured for 2 to 7 days. […] After centrifugation, a medium was added to isolate the cells into single cells, and then the number of cells was measured using CountessIII cell counter (Thermo Scientific. Inc.).

[2] = test system: two-dimensional intestinal stem cell population; assay: Two-dimensional culture of intestinal stem cell population with removal of medium factors or inhibitor treatment; details: presence or absence of each factor; FIGS. 7-10
Protocol: as §1
To measure viability of a two-dimensional intestinal stem cell population cultured in a culture dish coated with 1% of Matrigel, a kit (LIVE/DEAD Viability/Cytotoxicity Kit, Invitrogen) capable of distinguishing and staining surviving cells and dead cells was used. […] The stained cells were observed through a fluorescence microscope (Olympus).
The two-dimensional intestinal stem cell population was plated on a culture dish coated with 1% of Matrigel and then cultured for 2 to 7 days. […] After centrifugation, a medium was added to isolate the cells into single cells, and then the number of cells was measured using CountessIII cell counter (Thermo Scientific. Inc.). […]

[3] = test system: two-dimensional intestinal stem cell population; assay: Differentiation into 2.5-dimensional intestinal epithelial cells by air-liquid interface culture, medium factor screening; details: minimal medium composition; FIG. 24
Protocol: The intestinal stem cells grown to a density of 70 to 80% were washed 1-2 times with PBS, and then treated with TE in an incubator at 37° C. for 5 to 7 minutes. The intestinal stem cells isolated into single cells were collected and then diluted using the hIO medium. The cells were gathered by centrifugation, supernatant was removed, the intestinal stem cell culture medium was added thereto and sufficiently mixed, and then the number of cells was measured using Countess III cell counter (Thermo Scientific. Inc.). 2.5-3.5×10^5 cells were placed in an insert of 12-transwell plate (Corning) coated with 1% of Matrigel, and cultured in an incubator. After the cell density reached 100%, the culture medium of an upper layer was completely removed, and the culture medium of a lower layer was replaced with a differentiation medium (2 mM of L-glutamine, 1% of Penicillin-Streptomycin, and 15 mM of a HEPES buffer in Advanced DMEM F12) comprising 200 ng/ml of R-spondin 1 (R&D Systems), 100 ng/ml of EGF (R&D Systems), 2.5 µM of Prostaglandin E2 (Sigma-aldrich), 10 μM of SB202190 (Sigma-aldrich), and 10 mM of nicotinamide (Sigma-aldrich). Thereafter, once every 2 days, a surface of the upper layer was washed with the PBS or hIO medium, and the lower layer was replaced with a new differentiation medium and cultured for 8 to 12 days.

| Molecule | need for long-term subculturing [1] | role of essential culture medium factor (stemness, proliferation, death) [2] | effect on differentiation into intestinal epithelial cells [3] |
| --- | --- | --- | --- |
| B1 | required to more efficiently perform long-term culturing | – | – |
| B2 | – | modulate stemness and proliferation of two-dimensional intestinal stem cells | excellent effect on differentiation into intestinal epithelial cells |
| B3 | required to more efficiently perform long-term culturing | – | – |

From patent US20250215397A1, “TWO-DIMENSIONAL CULTURE METHOD HAVING CLEAR CHEMICAL COMPOSITION FOR CULTURING THREE-DIMENSIONAL INTESTINAL ORGANOID-DERIVED INTESTINAL STEM CELL AGGREGATE” (KOREA RESEARCH INSTITUTE OF BIOSCIENCE AND BIOTECHNOLOGY, priority 2022, published 2025)
